System: DU145
Test: Soft agar growth assay (anchorage independent growth)
Format: cell-based, human
Settings: DN-ETS2 transfectants vs DU145 parental; after three weeks
Description: Soft agar growth assays were performed in six-well plates (35-mm wells). Cells (20,000) were plated in 0.4% agar (Sigma) in RPMI 1640 supplemented with 10% FBS. An underlayer of 0.8% agar was used to prevent attachment of cells. Triplicate assays initiated with 20,000 cells were fed weekly by agar overlay and scored after 3 weeks. The soft agar assays were performed twice, independently.

B1: DN-ETS2: dominant negative ETS2 mutant: DNA binding domain (C-terminal amino acids 334-469) of human ETS2, expressed from pDN-ETS2 (protein, UniProt P15036 334-469, looked up, fragment)
chain: YIQERSDPVEQGKPVIPAAVLAGFTGSGPIQLWQFLLELLSDKSCQSFISWTGDGWEFKLADPDEVARRWGKRKNKPKMNYEKLSRGLRYYYDKNIIHKTSGKRYVYRFVCDLQNLLGFTPEELHAILGVQPDTED
anchorage-independent growth in soft agar: do not grow well in soft agar

From patent US20020081601A1, “Methods and compositions for diagnosis and treatment of cancer based on the transcription factor ets2” (MUSC Foundation For Research Development., priority 1998, published 2002)
